Experimental data published in the DeepSol protein solubility set.

Assay: soluble on expression in E. coli; label from the status in PepcDB or PDB records

Sequence	soluble on expression in E. coli
MSLVMDSLIIKQLIKSTFDIPLQVTYPNGNIETYNGSNPHVKLKLNKNFSVSELSKDPSIVLGEAVMDGDIEIYGSIQELILSAYRCGDSFLRNSKFSKLIPKQFHDKKHSKSDIQKHYDIGNDFYKLWLDDTMTYSCAYFKHENDSLEQAQLNKVHHILNKLNAQPGGKLLDIGCGWGTLIITAAKEYGLNATGITLSEEQASFITKRIKEEGLENKVTVLIKDYRDIRETYDYITSVGMFEHVGKENLSQYFQTISKRLNINGLALIHGITGQVGGNHGSGTNSWINKYIFPGGYIPRLTENLNHIASAGLQIADLEPLRRHYQKTLELWTKNFHNALPEVQKTHDKRFINMWDLYLQSCAASFESGNIDIFQYLLSKGVSKDTMPMTRDYMYSANEGHHHHHH	soluble
MDKVLNREESLQLMDLLGLERSAWGNIPLMRKAYLKKCKEFHPDKGGDEEKMKKMNTLYKKMEDGVKYAHQPDFGGFWDATEVFASSLNPGVDAIYCKQWPECVKKMSTNCICLLCLLRMKHENRKLYRKDPLVWVDCYCFDCFRMWFGLDLCEGTLLLWCDIIGQTTYRDLKL	soluble
SRSYRFSDYLHMSVSFSNDMDLFCGEDSGVFSGESTVDFSSSEVDSWPGDSIACFIEDERHFVPGHDYLSRFQTRSLDASAREDSVAWILKVQAYYNFQPLTAYLAVNYMDRFLYARRLPETSGWPMQLLAVACLSLAAKMEEILVPSLFDFQVAGVKYLFEAKTIKRMELLVLSVLDWRLRSVTPFDFISFFAYKIDPSGTFLGFFISHATEIILSNIKEASFLEYWPSSIAAAAILCVANELPSLSSVVNPHESPETWCDGLSKEKIVRCYRLMKAMAIENNRLNTPKVIAKLRVSVRASSTLTRPSDESSFSSSSPCKRRKLSGYSWVGDETSTSN	soluble
MTGALNQAQKTPWRYGFLNLMRRVDAQLCDTPAGSIWQPRMEKFRLGQTPTMTFAPREIAQVSWQDGRLHLSLYSLGLWGPNGPLPLHYTELALNRSESRHDPTLVHFSNIFHHRWLTQFWQAWRSAQSAGGGLDKPEHDRFAFYIASLSGQDLRESAESPLSDHVRLAASAHLVRESRNPDGLAATLAHYFSVPFAVKEFALHWITVANDEITRLGTPAQSSVLGNGALIGQAVPDMQYKFRLIIGPLTLEDYLRFLPGGNNLPVLTELVRTFIGFEYCWEIELQLKPHAAPPAVIGGAQRLGWTAWAGKAMHDRPVTGMIFEPEHGLTH	not soluble
SNTRNFVLRDEDGNEHGVFTGKQPRQAALKAANRGSGTKANPDIIRLRERGTKKVHVFKAWKEIVDAPKNRPAWMPEKISKPFVKKERIEKLE	soluble
MSLGSNPPTKILDFLFLGGVSDATNPEFLRRENIVTILNVSREEYWSVDKGITIHPFPLEDNAEENIRKFFSHTYRLLEAARSSASPARPPCVLVHSRYGISRSVTIVLAYLMRRNGWSLNDALQYVMCRRPHVEPNVGFMNVLLSFQRDMDPQKRDIQRNEGHHHHHH	not soluble
MSTEIKTLKPQAVWEYFYDLTQIPRPTGQMDEVTKYVFDFGKRLGLETEQDEVGNVIIRKPATPGMENKPIVTLQSHLDMVPQKNSDIDHDFTKDPIDAYIDGEWVKARG	not soluble
MMHEKNIALLCDEADRLLQLNINLLRQMVDEPDVLSDSKNENGLLFDKRKALKRIEELEGEQIKTARREMVLAVVGTMKAGKSTTINAIVGQEILPNRNRPMTSVPTLIRHVPGKTEPVLHLEHIQPVRNLLITLQEKLATPAGQQVAQSLQQTGDTRELLDILADDVWLKNEYHGEDEIFTGLASLNDLVRLAAAMGTEFPFDEYAEVQKLPVIDVAFSHLVGMDACQGTLTLLDTPGPNEAGQPQMEMMMRDQLQKASAVLAVMDYTQMNSKADEEVRKELNAIADVSAGRLFVLVNKFDEKDRNGDGADAVRQKVPAMLNSDVLPASRVYPGSSRQAYLANRALHELRKNGALPVDEAWVDDFIREAFGPMVEEDDWKDSTKVNKKAEKLWNISLIDQLITEVIQSSHSRAAALAVDSAAAKLMQNAENVSEYLSLRHQGLQQSIQSLQAHITSLLADIQEIEECQNQVTGDVRMAMEDINTKTGELLTKVCASLEEELNDYFRSGKRKEQQMLEEENSAQPRERNAFAFFHDIFGTGNQHDRMRDFDPDSPEIKFSDRRAALELMTQIESTVTSLHREAEAQFRPELEKIVSGIETGFRGTALYATENIAGRINARLEDEGFTVKISFPAVSQLQTRLAVKINLSALMEERTETVTRRRRQSGVWGTVCRWFGTSDLGWENYDEDVSRSVININKAREEVMSLTRAYFGELQASIEQDINQPVRQEIDAFFCAFREKVEQLRNTLIQSSEDHKRDQQAQERLTGRLQALNERVPELITDSKALREELETML	not soluble
MTVAKAIFIKCGNLGTSMMMDMLLDERADREDVEFRVVGTSVKMDPECVEAAVEMALDIAEDFEPDFIVYGGPNPAAPGPSKAREMLADSEYPAVIIGDAPGLKVKDEMEEQGLGYILVKPDAMLGARREFLDPVEMAIYNADLMKVLAATGVFRVVQEAFDELIEKAKEDEISENDLPKLVIDRNTLLEREEFENPYAMVKAMAALEIAENVADVSVEGCFVEQDKERYVPIVASAHEMMRKAAELADEARELEKSNDAVLRTPHAPDGKVLSKRKFMEDPE	soluble
MSNIYDWSLKADENAHSDNIINWAEGQPPSSVNDSARAMMQRVREYLADNGGSLDSTFIVNAEDKTTSIIVTTASPIEEYKNDIIIRFKAGGVNVGTTTVIVNNIEEKLLYKATNAGVTPLEGGELQRDAIYEMVYNKDVSMEDHGGWYLLNPTPLPPPKIETFPSGFIATFAMQEVPSGWLLCDGAVYERKDYPQLFKAIGDKWGKDSDTTFKVPDFRGMFLRGFDDGRGLDAGRQFADQQHDSIRSHTHIGTIEEAGEHTHKFQYYGVGWDSGDIGRRNPFYYRQSSTGVTQSAGAHTHDISLSPTGEAETRPVNTTVVYAIKS	not soluble
MAIHNRAGQPAQQSDLINVAQLTAQYYVLKPEAGNAEHAVKFGTSGHRGSAGRHSFNEPHILAIAQAIAEERAKNGITGPCYVGKDTHALSEPAFISVLEVLAANGVDVIVQENNGFTPTPAVSNAILVHNKKGGPLADGIVITPSHNPPEDGGIKYNPPNGGPADTNVTKVVEDRANALLAGGLQGVKRISLDAAMASGHVKAVDLVQPFVEGLADIVDMAAIQKAGLTLGVDPLGGSGIEYWKRIAEHYKLNLTLVNDQVDQTFRFMHLDKDGAIRMDCSSECAMAGLLALRDKFDLAFANDPDYDRHGIVTPAGLMNPNHYLAVAINYLFQHRPLWGKDVAVGKTLVSSAMIDRVVNDLGRKLVEVPVGFKWFVDGLFDGSFGFGGEESAGASFLRFDGTPWSTDKDGIIMCLLAAEITAVTGKNPQEHYNELAARFGAPSYNRLQASATSAQKAALSKLSPEMVSASTLAGDPITARLTAAPGNGASIGGLKVMTDNGWFAARPSGTEDAYKIYCESFLGEEHRKQIEKEAVEIVSEVLKNA	soluble
MGSDKIHHHHHHMQISFISHEYPPVSGGGSTALHEYASGLATRGHAVQVVTVGTGAHDTVDTEDGVQVVRLAAGRKSLLAPSKAELIRSCAALRLKSMPHLRRHEPEVLVAFFAFPAGFLAAPLAAKLNIPLVVSLRGSDVPGFSAKRLGVFGPLLPYLFRRATRHAAAVVPNGRRLADMAAPYLHTGSRVQVIPNGVDTLRFAPQGAEHGSMGGPLRVLFVGQMIARKQCLVLAQALHEVAARGVPLQVSFAGSGPLEQDIRRIVSSLDPVVGVTFTGHVPRNAIADLYGAHDVLVHLSQAEGVSNVLMEALSSGLCLVAADTAVDAAIDGVPRQAPAEDGGIILLPVDCGPVVLGATLAGLACNRSLVEEQQRLARRTALKNSWQVRVGELEDLLTGSIAGCQAS	not soluble
MIFSVDKVRADFPVLSREVNGLPLAYLDSAASAQKPSQVIDAEAEFYRHGYAAVHRGIHTLSAQATEKMENVRKRASLFINARSAEELVFVRGTTEGINLVANSWGNSNVRAGDNIIISQMEHHANIVPWQMLCARVGAELRVIPLNPDGTLQLETLPTLFDEKTRLLAITHVSNVLGTENPLAEMITLAHQHGAKVLVDGAQAVMHHPVDVQALDCDFYVFSGHKLYGPTGIGILYVKEALLQEMPPWEGGGSMIATVSLSEGTTWTKAPWRFEAGTPNTGGIIGLGAALEYVSALGLNNIAEYEQNLMHYALSQLESVPDLTLYGPQNRLGVIAFNLGKHHAYDVGSFLDNYGIAVRTGHHCAMPLMAYYNVPAMCRASLAMYNTHEEVDRLVTGLQRIHRLLG	soluble
GSDHVDLREHVIDVPPQEVICKDNVVVTVDAVVYYQVIDPVKAVYNVSDFLMAIVKLAQTNLRAIIGEMELDETLSGRDIINARLREELDKITDRWGVKITRVEIQRIDPPKD	soluble
MGSDKIHHHHHHLADVIYQAQPPLEFIPPAFNPLFLRFVHLLLPSWINWQTPITQIEADNVEVLVDLYRQFQEGKIRFMLAFRHPKTDDPFCLAYLLSQLVPKIARSQGTTLQLPIHAHFIYDRGIPLWAGSYVGWIASRLGGTPIQRGKADWTGLRSARDLFANGKFPMAAAPEGATNGLSENISPLEPGIAQLGFWCAEDLHKAERPEQVLIVPVGIKYSYVDAPWDAIANLLSELEAASGLPVNSAENASIESLYPRLLALAEHLLLLMEEFYTRFYHQKLPDSKIVNGQIPDRNEALAVRLQALLNAALLISEQYFNLQSKGSLSDRCRRVEQAGWNYIFREEFKDVKGVSAVERALGDRVAEEANARMWHMRLVESFVAVSGNYIRENPTVERFAETTLILWQMIAKIKGDKGVQRPQLGKQKVKITVGEPISISEHYPAYKENRLGARQAVADVTNDLQHALEGLI	not soluble
MLPKAARIPHAMTLHGDTRIDNYYWLRDDTRSQPEVLDYLQQENSYGHRVMASQQALQDRILKEIIDRIPQREVSAPYIKNGYRYRHIYEPGCEYAIYQRQSAFSEEWDEWETLLDANKRAAHSEFYSMGGMAITPDNTIMALAEDFLSRRQYGIRFRNLETGNWYPELLDNVEPSFVWANDSWIFYYVRKHPVTLLPYQVWRHAIGTPASQDKLIYEEKDDTYYVSLHKTTSKHYVVIHLASATTSEVRLLDAEMADAEPFVFLPRRKDHEYSLDHYQHRFYLRSNRHGKNFGLYRTRMRDEQQWEELIPPRENIMLEGFTLFTDWLVVEERQRGLTSLRQINRKTREVIGIAFDDPAYVTWIAYNPEPETARLRYGYSSMTTPDTLFELDMDTGERRVLKQTEVPGFYAANYRSEHLWIVARDGVEVPVSLVYHRKHFRKGHNPLLVYGYGSYGASIDADFSFSRLSLLDRGFVYAIVHVRGGGELGQQWYEDGKFLKKKNTFNDYLDACDALLKLGYGSPSLCYAMGGSAGGMLMGVAINQRPELFHGVIAQVPFVDVVTTMLDESIPLTTGEFEEWGNPQDPQYYEYMKSYSPYDNVTAQAYPHLLVTTGLHDSQVQYWEPAKWVAKLRELKTDDHLLLLCTDMDSGHGGKSGRFKSYEGVAMEYAFLVALAQGTLPATPAD	not soluble
MSLFIDKQTVERHFSKSAHLYDGVNHVQRKMAHRLVQLLDEKRRDAKDEPRAILDIGCGTGWLTRECLKSFPQATIDAVDLSKQMLEVAEKNVSSHPNVQFIQGDIEKMVREKPSAKTYDVIVANAVFQWLDKPTETVAQLRSWLKPNGLLLFSTFGPDTFYELHDSFQLAAKQLGIIDERRGLDYLSKTEWKRTLDGLFAELTIHEEKAIESYATVEQFLHTVKKMGATYSQSSRPLSKRYYQLMKEIYEQRYRTEDSIPATYDCLYVLCQAEGHHHHHH	soluble
MNEISVVLPAYNEEENIQKLVKRWQQLCKDLKYKYELSLNIFVIDDGSKDKTEVIGRELERKYDNFYLIKHDKNKGLGEAINTGIKYVMEKRSDSKYVCIMDCDNTQDPRYVFSMIEKMEKTDVVIASRYQKGSCVKGVPFFRLTASYGARFVYTIFLGVKNVRDYTCGYRLYRTSALKTAFKVFGESFIEESGFTCMVELLYKLNICGAVFKEVPFTLRYDFKGGVSKMKVLITAINSVKLTLRLKKIRKGVEPVLEDLEHHHHHH	not soluble
